The chains are these.
T1: EsCas13d, nuclease-dead (Eubacterium siraeum, UniProt B0MS50, R295A;H300A;R849A;H854A)
T1 sequence: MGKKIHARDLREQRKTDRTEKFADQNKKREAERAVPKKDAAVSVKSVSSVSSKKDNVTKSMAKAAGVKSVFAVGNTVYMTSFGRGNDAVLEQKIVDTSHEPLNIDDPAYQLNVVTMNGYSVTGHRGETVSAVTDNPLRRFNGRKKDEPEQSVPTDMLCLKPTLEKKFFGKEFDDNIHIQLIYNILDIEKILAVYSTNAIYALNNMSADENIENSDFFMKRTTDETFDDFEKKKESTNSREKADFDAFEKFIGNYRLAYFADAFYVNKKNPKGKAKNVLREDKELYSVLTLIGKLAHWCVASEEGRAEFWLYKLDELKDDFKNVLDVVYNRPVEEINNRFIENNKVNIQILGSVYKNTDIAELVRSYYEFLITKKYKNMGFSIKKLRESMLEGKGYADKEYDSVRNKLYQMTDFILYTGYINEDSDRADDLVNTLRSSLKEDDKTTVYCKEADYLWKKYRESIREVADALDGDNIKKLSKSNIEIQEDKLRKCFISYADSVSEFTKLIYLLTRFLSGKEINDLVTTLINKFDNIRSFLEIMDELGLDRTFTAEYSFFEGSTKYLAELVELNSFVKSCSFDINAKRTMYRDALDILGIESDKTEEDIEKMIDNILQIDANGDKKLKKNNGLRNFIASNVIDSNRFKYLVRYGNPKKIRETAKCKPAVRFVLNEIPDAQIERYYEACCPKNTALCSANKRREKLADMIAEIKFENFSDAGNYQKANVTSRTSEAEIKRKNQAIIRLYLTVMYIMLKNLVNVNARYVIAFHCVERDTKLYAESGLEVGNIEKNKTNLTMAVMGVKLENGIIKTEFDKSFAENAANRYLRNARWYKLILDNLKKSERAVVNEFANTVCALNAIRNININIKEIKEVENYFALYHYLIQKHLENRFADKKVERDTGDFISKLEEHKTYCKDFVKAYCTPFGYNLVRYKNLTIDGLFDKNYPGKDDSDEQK

B1: target 1 insG 3' of 21,insA 3' of 21 (mixed)
RNA 1: CACCCGUGCAAAAAUGCAGGGGUCUAAAACUGAGCGGAUAACCUCUCUAUGG
RNA 2: GGGAAUGGAUCCACAUCUACGAAUUCGUACCGAAUAGAGAGGUUAUCCGCUCACCGAGAUCGGAAGAGCACACGU
B2: target 1 C2U,A9C (mixed)
RNA 1: CACCCGUGCAAAAAUGCAGGGGUCUAAAACUGAGCGGAUAACCUCUCUAUGG
RNA 2: GGGAAUGGAUCCACAUCUACGAAUUCGUACCAUAGAGAGGUUCUCCGCUUACCGAGAUCGGAAGAGCACACGU
B3: target 1 insA 3' of 21,insC 3' of 15 (mixed)
RNA 1: CACCCGUGCAAAAAUGCAGGGGUCUAAAACUGAGCGGAUAACCUCUCUAUGG
RNA 2: GGGAAUGGAUCCACAUCUACGAAUUCGUACCAAUAGAGCAGGUUAUCCGCUCACCGAGAUCGGAAGAGCACACGU
B4: target 1 U8A,A18G (mixed)
RNA 1: CACCCGUGCAAAAAUGCAGGGGUCUAAAACUGAGCGGAUAACCUCUCUAUGG
RNA 2: GGGAAUGGAUCCACAUCUACGAAUUCGUACCAUGGAGAGGUUAACCGCUCACCGAGAUCGGAAGAGCACACGU
B5: target 1 insG 3' of 11,insU 3' of 2 (mixed)
RNA 1: CACCCGUGCAAAAAUGCAGGGGUCUAAAACUGAGCGGAUAACCUCUCUAUGG
RNA 2: GGGAAUGGAUCCACAUCUACGAAUUCGUACCAUAGAGAGGUGUAUCCGCUCUACCGAGAUCGGAAGAGCACACGU
B6: target 1 insA 3' of 7,insU 3' of 2 (mixed)
RNA 1: CACCCGUGCAAAAAUGCAGGGGUCUAAAACUGAGCGGAUAACCUCUCUAUGG
RNA 2: GGGAAUGGAUCCACAUCUACGAAUUCGUACCAUAGAGAGGUUAUCACGCUCUACCGAGAUCGGAAGAGCACACGU
B7: target 1 U8G,A9U (mixed)
RNA 1: CACCCGUGCAAAAAUGCAGGGGUCUAAAACUGAGCGGAUAACCUCUCUAUGG
RNA 2: GGGAAUGGAUCCACAUCUACGAAUUCGUACCAUAGAGAGGUUUGCCGCUCACCGAGAUCGGAAGAGCACACGU
B8: target 1 insG 3' of 10,insC 3' of 3 (mixed)
RNA 1: CACCCGUGCAAAAAUGCAGGGGUCUAAAACUGAGCGGAUAACCUCUCUAUGG
RNA 2: GGGAAUGGAUCCACAUCUACGAAUUCGUACCAUAGAGAGGUUGAUCCGCUCCACCGAGAUCGGAAGAGCACACGU
B9: target 1 G5C,U8G (mixed)
RNA 1: CACCCGUGCAAAAAUGCAGGGGUCUAAAACUGAGCGGAUAACCUCUCUAUGG
RNA 2: GGGAAUGGAUCCACAUCUACGAAUUCGUACCAUAGAGAGGUUAGCCCCUCACCGAGAUCGGAAGAGCACACGU
B10: target 1 insC 3' of 5,insG 3' of 2 (mixed)
RNA 1: CACCCGUGCAAAAAUGCAGGGGUCUAAAACUGAGCGGAUAACCUCUCUAUGG
RNA 2: GGGAAUGGAUCCACAUCUACGAAUUCGUACCAUAGAGAGGUUAUCCGCCUCGACCGAGAUCGGAAGAGCACACGU
B11: target 1 G12C,G15U (mixed)
RNA 1: CACCCGUGCAAAAAUGCAGGGGUCUAAAACUGAGCGGAUAACCUCUCUAUGG
RNA 2: GGGAAUGGAUCCACAUCUACGAAUUCGUACCAUAGAUAGCUUAUCCGCUCACCGAGAUCGGAAGAGCACACGU
B12: target 1 insC 3' of 13,insG 3' of 8 (mixed)
RNA 1: CACCCGUGCAAAAAUGCAGGGGUCUAAAACUGAGCGGAUAACCUCUCUAUGG
RNA 2: GGGAAUGGAUCCACAUCUACGAAUUCGUACCAUAGAGAGCGUUAUGCCGCUCACCGAGAUCGGAAGAGCACACGU
B13: target 1 insG 3' of 8,insG 3' of 3 (mixed)
RNA 1: CACCCGUGCAAAAAUGCAGGGGUCUAAAACUGAGCGGAUAACCUCUCUAUGG
RNA 2: GGGAAUGGAUCCACAUCUACGAAUUCGUACCAUAGAGAGGUUAUGCCGCUGCACCGAGAUCGGAAGAGCACACGU
B14: target 1 insA 3' of 17,insA 3' of 10 (mixed)
RNA 1: CACCCGUGCAAAAAUGCAGGGGUCUAAAACUGAGCGGAUAACCUCUCUAUGG
RNA 2: GGGAAUGGAUCCACAUCUACGAAUUCGUACCAUAGAAGAGGUUAAUCCGCUCACCGAGAUCGGAAGAGCACACGU
B15: target 1 insU 3' of 18 (mixed)
RNA 1: CACCCGUGCAAAAAUGCAGGGGUCUAAAACUGAGCGGAUAACCUCUCUAUGG
RNA 2: GGGAAUGGAUCCACAUCUACGAAUUCGUACCAUAUGAGAGGUUAUCCGCUCACCGAGAUCGGAAGAGCACACGU
B16: target 1 U3G,U11G (mixed)
RNA 1: CACCCGUGCAAAAAUGCAGGGGUCUAAAACUGAGCGGAUAACCUCUCUAUGG
RNA 2: GGGAAUGGAUCCACAUCUACGAAUUCGUACCAUAGAGAGGGUAUCCGCGCACCGAGAUCGGAAGAGCACACGU
B17: target 1 insU 3' of 9 (mixed)
RNA 1: CACCCGUGCAAAAAUGCAGGGGUCUAAAACUGAGCGGAUAACCUCUCUAUGG
RNA 2: GGGAAUGGAUCCACAUCUACGAAUUCGUACCAUAGAGAGGUUAUUCCGCUCACCGAGAUCGGAAGAGCACACGU
B18: target 1 insG 3' of 22,insU 3' of 4 (mixed)
RNA 1: CACCCGUGCAAAAAUGCAGGGGUCUAAAACUGAGCGGAUAACCUCUCUAUGG
RNA 2: GGGAAUGGAUCCACAUCUACGAAUUCGUACGCAUAGAGAGGUUAUCCGCUUCACCGAGAUCGGAAGAGCACACGU
B19: target 1 C7U,A16C (mixed)
RNA 1: CACCCGUGCAAAAAUGCAGGGGUCUAAAACUGAGCGGAUAACCUCUCUAUGG
RNA 2: GGGAAUGGAUCCACAUCUACGAAUUCGUACCAUAGCGAGGUUAUUCGCUCACCGAGAUCGGAAGAGCACACGU
B20: target 1 insC 3' of 22,insC 3' of 9 (mixed)
RNA 1: CACCCGUGCAAAAAUGCAGGGGUCUAAAACUGAGCGGAUAACCUCUCUAUGG
RNA 2: GGGAAUGGAUCCACAUCUACGAAUUCGUACCCAUAGAGAGGUUACUCCGCUCACCGAGAUCGGAAGAGCACACGU
B21: target 1 insC 3' of 12,insA 3' of 4 (mixed)
RNA 1: CACCCGUGCAAAAAUGCAGGGGUCUAAAACUGAGCGGAUAACCUCUCUAUGG
RNA 2: GGGAAUGGAUCCACAUCUACGAAUUCGUACCAUAGAGAGGCUUAUCCGCAUCACCGAGAUCGGAAGAGCACACGU
B22: target 1 U3C,A14G (mixed)
RNA 1: CACCCGUGCAAAAAUGCAGGGGUCUAAAACUGAGCGGAUAACCUCUCUAUGG
RNA 2: GGGAAUGGAUCCACAUCUACGAAUUCGUACCAUAGAGGGGUUAUCCGCCCACCGAGAUCGGAAGAGCACACGU
B23: target 1 insA 3' of 22,insA 3' of 11 (mixed)
RNA 1: CACCCGUGCAAAAAUGCAGGGGUCUAAAACUGAGCGGAUAACCUCUCUAUGG
RNA 2: GGGAAUGGAUCCACAUCUACGAAUUCGUACACAUAGAGAGGUAUAUCCGCUCACCGAGAUCGGAAGAGCACACGU
B24: target 1 insA 3' of 10 (mixed)
RNA 1: CACCCGUGCAAAAAUGCAGGGGUCUAAAACUGAGCGGAUAACCUCUCUAUGG
RNA 2: GGGAAUGGAUCCACAUCUACGAAUUCGUACCAUAGAGAGGUUAAUCCGCUCACCGAGAUCGGAAGAGCACACGU
B25: target 1 A9G,U19A (mixed)
RNA 1: CACCCGUGCAAAAAUGCAGGGGUCUAAAACUGAGCGGAUAACCUCUCUAUGG
RNA 2: GGGAAUGGAUCCACAUCUACGAAUUCGUACCAAAGAGAGGUUGUCCGCUCACCGAGAUCGGAAGAGCACACGU
B26: target 1 C6A,G12C (mixed)
RNA 1: CACCCGUGCAAAAAUGCAGGGGUCUAAAACUGAGCGGAUAACCUCUCUAUGG
RNA 2: GGGAAUGGAUCCACAUCUACGAAUUCGUACCAUAGAGAGCUUAUCAGCUCACCGAGAUCGGAAGAGCACACGU
B27: target 1 insA 3' of 12,insA 3' of 6 (mixed)
RNA 1: CACCCGUGCAAAAAUGCAGGGGUCUAAAACUGAGCGGAUAACCUCUCUAUGG
RNA 2: GGGAAUGGAUCCACAUCUACGAAUUCGUACCAUAGAGAGGAUUAUCCAGCUCACCGAGAUCGGAAGAGCACACGU

The series concerns the target T1, EsCas13d, nuclease-dead. Put plainly: crRNA (strand 1, pre-loaded); Mg2+; 40 mM Tris-HCl pH 7.5, 150 mM NaCl, 6 mM MgCl2, 1 mM DTT, 0.1% Tween-20, 0.2 mg/ml BSA; 25 C; 10 min per concentration, then washed. The settings on record: tags: His6-TwinStrep-SUMO cleaved; N-terminal SNAP kept (SNAP-Surface 488); label: 3' end held by stalled T7 RNA polymerase.
B1: the affinity, expressed as Kd, was 27.3 ± 3.5 nM. In turn, B2 registered a Kd of 14.2 ± 0.5 nM. For the molecule B3, binding was put at a Kd of 55 ± 11 nM.

As to B4, the Kd amounted to 72 ± 16 nM. In turn, B5 displayed a Kd of 50 ± 9 nM. B6 yielded a Kd of 7.5 ± 0.6 nM. On to B7, for which the Kd is 11.4 ± 0.4 nM.

In turn, B8 yielded a Kd of 26.7 ± 1.9 nM. Consider B9, for which the Kd was found to be 35 ± 4 nM. Under B10 stands 10 ± 0.5 nM; under B11, about 60 nM. The figure for B12 is 13.9 ± 1.5 nM; for B13 it is 7.7 ± 0.4 nM.

B14 gave a Kd of 19.2 ± 1.7 nM. Molecule B15 displayed a Kd of 31 ± 3.2 nM. Under B16 stands 11.7 ± 0.9 nM; under B17, 13.1 ± 0.9 nM; under B18, 32 ± 5 nM.

For the molecule B19, the affinity, expressed as Kd, was 43 ± 4 nM. In turn, B20 returned a Kd of 50 ± 13 nM. B21: the affinity, expressed as Kd, was 7 ± 0.7 nM.

As for B22, the equilibrium dissociation constant (Kd) stood at 57 ± 18 nM.

As for B23, the Kd turned out to be 17.6 ± 1 nM. Under B24 stands 12 ± 0.5 nM; under B25, 44 ± 5 nM; under B26, 14.8 ± 0.5 nM. The figure for B27 is 37.3 ± 3 nM.

As usually defined, the Kd is a measure of binding affinity in units of concentration. Low values mean higher affinity, high ones lower affinity.

These data come from PMC10786891, “Massively parallel profiling of RNA-targeting CRISPR-Cas13d”.
